Broadly, the stoichiometry N is a count of units in the complex or per binding partner.

Data on three substances can be found in PMC5482835.

Assay [1] deals with caveolin-1 (Chinese hamster (endogenous in CHO-K1)). Nature of the assay: cross-linking; intact CHO-K1 cells, 0.5 mM membrane-permeable DSP, room temperature, 45 min, quenched with 50 mM glycine; SDS-PAGE and Western blot; cross-link reversed by beta-mercaptoethanol. A general note: A western blot detects proteins with antibodies after separation by electrophoresis.
Assay [2] concerns the target full-length human Neu3 tagged at the C-terminus with a c-Myc epitope (human). Nature of the assay: non-reducing SDS-PAGE with Western blot; total homogenates of NEU3-transfected CHO-K1 cells separated by SDS-PAGE with or without 5% beta-mercaptoethanol; blotted with anti-Neu3 antibody.
Assay [3] addresses GPI-YFP, a fusion protein containing the total sequence of YFP fused to a glycosylphosphatidylinositol (GPI)-membrane attachment signal. In words: cross-linking; intact CHO-K1 cells, 2 mM membrane-impermeable BS3, 4 °C, 45 min, quenched with 50 mM glycine; SDS-PAGE and Western blot.

In the case of caveolin-1 (natural protein), in assay [1], the stoichiometry N worked out at 2.
As to “full-length human Neu3 tagged at the C-terminus with a c-Myc epitope (enzyme)”, in assay [2], the percent of the total enzyme in the ~125 kDa band stood at 25% and the stoichiometry N was 2.
On to “GPI-YFP, a fusion protein containing the total sequence of YFP fused to a glycosylphosphatidylinositol (GPI)-membrane attachment signal”, for which the stoichiometry N in assay [3] worked out at 2.
